Data set [1] concerns the target T1, Bst DNA polymerase I large fragment (Geobacillus stearothermophilus, UniProt E1C9K5 3-580). The data set is described as follows: X-ray crystallography; 0 min, before dATP soak; Co-crystals; P/T duplex annealed in Bst buffer (50 mM Tris-Cl pH 7.5, 150 mM NaCl, 1 mM EDTA, 10 mM BME) with 20 mM MgCl2; crystallization and soak conditions not in the material. The settings on record: protein: recombinant; tags: tagless; template 5' overhang 5 nt (GACGT) and 3' overhang 1 nt (A); 10 bp.

Data set [2] has as its target T1, Bst DNA polymerase I large fragment. The data set is described as follows: X-ray crystallography; dATP and dCTP soak, 48 h, product binary complex; Co-crystals; P/T duplex annealed in Bst buffer (50 mM Tris-Cl pH 7.5, 150 mM NaCl, 1 mM EDTA, 10 mM BME) with 20 mM MgCl2; crystallization and soak conditions not in the material. The note with it: protein: recombinant; tags: tagless; template 5' overhang 3 nt and 3' overhang 1 nt; 12 bp.

Data set [3] shares this target. Briefly: X-ray crystallography; dATP soak, 120 min, product complex; Co-crystals; P/T duplex annealed in Bst buffer (50 mM Tris-Cl pH 7.5, 150 mM NaCl, 1 mM EDTA, 10 mM BME) with 20 mM MgCl2; crystallization and soak conditions not in the material. The note with it: protein: recombinant; tags: tagless; template 5' overhang 4 nt and 3' overhang 1 nt; 11 bp.

B1: P/T duplex (starting primer-template) (dsDNA)
DNA 1: GCGATCACGT
DNA 2: GACGTACGTGATCGCA
Consider B1, for which, in data set [1], the binding result is listed as “binds”.

B2: P+2/T duplex (primer extended by dA and dC in crystallo) (dsDNA)
DNA 1: GCGATCACGTAC
DNA 2: GACGTACGTGATCGCA
With B2, the binding result in data set [2] is recorded as “binds”.

B3: P+1/T duplex (primer extended by dA in crystallo) (dsDNA)
DNA 1: GCGATCACGTA
DNA 2: GACGTACGTGATCGCA
Regarding B3, in data set [3], the binding result is “binds”.

The values above are taken from PMC8113479, “Following replicative DNA synthesis by time-resolved X-ray crystallography”.
